# ± gives the half width of the 95% confidence interval.
# Test: folding stability dG unfold (combined trypsin and chymotrypsin); higher = more stable
# In short: (§1)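 Mini-proteins designed to be under 80 residues and free of cysteine were carried in a PA-tagged cDNA display construct and digested with trypsin and with chymotrypsin. Each protease was applied at 11 threefold-diluted concentrations, alongside a no-protease condition, before sequencing. K50 came from Bayesian fitting of the sequencing counts, and unfolding free energy was obtained by comparing it with a sequence-predicted unfolded-state K50 and a shared folded-state K50, for each protease separately or for both together. Designs were retained only if their AlphaFold2 dimer inter-PAE exceeded 15.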
row,Sequence,folding stability dG unfold [kcal/mol]
1,SAGSSISSISRSPVSTEEDPSTNVRRTTYLEKYPGPPNLLKEVTVTTTFAPDGTPTVTPAVTTLSPALLSAG [r5_48_JUSTAS],-0.717 ± 0.17
2,SAGGSAGGPVSVDPSTGTVTITVPPGTATPVVEAIAAALGLPVETATTPLPDGTTTVTVTIPAASAGGSAGG [r6_419_JUSTAS],0.844 ± 0.22
3,SAGEEVYLITVRIIDPETNEVKEITKLIKNKTEDEILEELRKLLEELGIELPEGAKVEITITKIKPPPESAG [r5_230_TrROS_Hall],4.26 ± 0.82
4,SAGGSAGGSAVRTIFIPGGNIKDIIELIKSDPGQPVQIHAPDGWVIKITGDKDIDIHPFPDSAGGSAGGSAG [r3_269_TrROS],0.216 ± 0.15
5,SAGGSAGGSAGGMIVTLPKTGEVLLVPEEEIEAFLAALPESFPKEDVEVYEYSPEEEPLSAGGSAGGSAGGS [r10_13_JUSTAS],0.253 ± 0.13
6,SAGGSASPEKVAEELKKKGYKEVKITKDPNTNVTTVTVEDPSGKKYTLTVDPKNPTVVSKKEFSLDSAGGSA [r15_648_JUSTAS],1.25 ± 0.14
7,SAGGSAGGSAMITIKVSPDVPVPSNTPITLPNGKKVKATVTPVPSPEDGTPVLKITLDPNLISAGGSAGGSA [r18_476_JUSTAS],0.446 ± 0.044
8,SAGGPVVTTTTEYDPSTGKTYTVTTVPGSATQTTTYTLPDGTVLTTTTTVSPTTGGVTSTTPTTTPVPASAG [r5_587_JUSTAS],1.39 ± 0.061
9,SAGGSAGGSAGGSILLITTHPKDAEKAAKEIEKILAELDIPPDAKIEVYVVPKEYLPDESAGGSAGGSAGGS [r4_472_TrMRF],0.329 ± 0.14
10,SAGGSAGGSAGMTVTVPPDLDPESAIAALKAAAPASVKTVTLTIVDGEGPTTTVTVDITGSAGGSAGGSAGG [r17_215_JUSTAS],0.00145 ± 0.096
11,SAGKVKVEKLEDGTVIVEAEIKDPETDEYIKIFDLVTFNPETGYALVPRLVIKGDKPFTFPVLVKLPKSAGG [r19_289_TrMRF],0.671 ± 0.12
12,SAGGSAGGSGFPVRLKIWDPDETYTYTVPMDPDNVQKFAEELGEKNFNIETEPNGWATITIPKSAGGSAGGS [r12_292_TrROS],0.713 ± 0.22
13,SAGGGFDIITITFGGIPITLTLEGEEEVKKFIEELPKLGIKTEILEKEKKIGPDGKPYVEVKVKAIPSAGGS [r8_336_JUSTAS],1.19 ± 0.16
14,SAGGSAGGSAGMTLEELLRKAKPGQTLTLRVRVVERNEDGSLSEREFTFTFRLELKPEDLSAGGSAGGSAGG [r11_347_TrROS_Hall],3.15 ± 0.21
15,SFSISTETKVVPQDGRLLIEYEFTVPNAPPGDTAALTLSVSHPSGASTSTSQTADPAGTYTAKFVVDIPLTS [r1_161_JUSTAS],0.527 ± 0.053
16,SAGGSAGGSMVKTFPESEPGERVTRELILTPDSIEIVETVVKTDPATGKPVEEVLLRRSTLPLSAGGSAGGS [r12_70_JUSTAS],-0.353 ± 0.29
17,SAGGSMVITITFPDGSTVTIPEEELLELLKKYGIEPDESDKEKVAKEAAKIIGEEKGIPIKEVKINSAGGSA [r2_83_JUSTAS],3.01 ± 0.066
18,SAGGSAGGSASMKVLEFPPDASIEEILEKIEKELGLSKEEIKNIKIEKIDDEEGSYKVIIESAGGSAGGSAG [r3_26_JUSTAS],2.59 ± 0.07
19,SAGGPGMEPIGEIKLDDGVTIEVWRPPNGWYRAKVEFPDNGKQINYPFNPNMSFEQAKDQIKELARKLSAGG [r13_624_TrROS],1.52 ± 0.36
20,DIDIETHPNGTILIKVPRNLLDEIKDILKENGYNVKITGIDPDWGYIRFPLKPVPPPPPKPSPEDAEEQGDS [r1_78_TrROS],1.89 ± 0.14
21,SAGGSAKNEYITVNITIIVYNPEDGKIEKIINLPIKVPKNLTKEQVINLAKKLLEEKGYEIAEIKGSAGGSA [r15_195_TrMRF],2.85 ± 0.2

row,Sequence,folding stability dG unfold [kcal/mol]
1,SAGAIERILEWLKDQPPGDEVPIPIRLPNGWYIKINIEYNPEENKPKIEVEYYDPDDGKPRQEQKFTIPSAG [r5_35_TrROS],1.31 ± 0.25
2,SAGGSMPPDTEIAVIRVEVRPPDGSTLPLLFTVPLEKVEEVAKEIAERLREKGYEVKVELAAVFPVSAGGSA [r2_274_TrMRF],2.04 ± 0.11
3,SAGGSAGGSPYKEVPVPVRIHSPDGETHEFPGTIWKSPDDGMLEIRFPGNGKKHKIPLNDIQISAGGSAGGS [r12_772_TrROS],-0.699 ± 0.22
4,SMSVEISVPPTNPGASPEEIAAALAAKGRPVEVVSVSEDPSTGTRTVTIAVRAPDGTLEETVVVNAPVGVSA [r9_879_JUSTAS],0.0853 ± 0.12
5,SAGMVEIVHDPAGYYTVNVTLTKEGKPTSRTIRVPPELSPEEVKALVEELAKEEGVDDVEVTVIPLPESAGG [r19_31_JUSTAS],1.41 ± 0.12
6,SIKIEPHPDGFFMLRFPDNGHKIMIRVDPEKGKVKIMFETPGQPVEQEIDPDEGTITIEFPNNKIEIPIKSA [r9_541_TrROS],1.56 ± 0.23
7,SAGGSAGGSAGGGSMKEKKLTVGDKEIIVTYNPETGTATVKSPENSVSVFPLEELKKLLSAGGSAGGSAGGS [r10_1140_JUSTAS],0.318 ± 0.24
8,SAVPLSEEELEALLEEKAKEKAEEILKENPELPPGAVIKIKVEYEQEVVLEDKVEPVKYEREVEYKVPLSAG [r14_486_JUSTAS],-0.0614 ± 0.44
9,SKTIIIEVKEEKLEEIAEELAKKLEEETGYKIKKVEIILPDGTVVRIEVDAKTKKIKIEVYKLDKNGKLLSA [r9_173_TrROS_Hall],1.97 ± 0.1
10,SAGGDITITKNPENDYYTITLPLPNSNSTAVAFLDPKTGTAVVINPDNPLVLVLEPNGTLKEVKLLPPSAGG [r13_101_TrMRF],0.902 ± 0.15
11,SAGGFLEAIKNGKPVIFHVLVKHPGSGEVEEYPILVHPDKPIDLEKLIKELFPEDFEAEIFVSDFGFSAGGS [r8_127_TrMRF],1.89 ± 0.089
12,MKIEIEIEREEDRVIVRIKIERKDGKEIELELEVPSLEEALEAIEKILASLPPEEVKIVEIEIYNADGEKIS [r1_169_TrROS_Hall],2.21 ± 0.2
13,SAGGSAGGMEIRIEKDENGFLRLKVINKKTKKETEIEIPVEDEDALKKLLDAGVERVEIEPLPPSAGGSAGG [r6_639_TrROS_Hall],1.14 ± 0.21
14,SMATVLSVSENPENPDTLSFEVELPDSPMSVTVPKDPKTGKYTMTVETPEATTTRDFTSLEDALAYIERASA [r9_366_JUSTAS],0.795 ± 0.034
15,SAGGSAGGSPYLVTVTLPDGSTLTHTIPVPPDVPLSEEEIRERIRREYPGPPLGPITIERPTESAGGSAGGS [r12_262_JUSTAS],1.35 ± 0.09
16,SAGGSAGMNSEITLTIPVPHPRDEEGRVLPLSPEAIEKELKEKGYNVKIKEVKTSPSTITVTLKIISAGGSA [r15_225_JUSTAS],0.957 ± 0.072
17,MKPIPAEEIRDLAQKLGLPLPPGQIQIKVRHNNKKKTFPIPAGDPITIDDIVENMQQQNPNIKDIEIVIHPS [r1_135_TrROS],< -1
18,SAGGSAGGSMVKVEVTTTYDPSSNKTTVTTTTTLTEGGGTVLGTKTTTTTTTISPTTPVTSVTSAGGSAGGS [r12_254_JUSTAS],0.955 ± 0.042
19,SAGGSAGGSAGDIPAIPKVIFIPYPIEKIEVFEDSVVVRVIHPDGGSETIVFPDRALILGSAGGSAGGSAGG [r11_957_TrMRF],1.53 ± 0.11
20,SPIVKVRLRIELPDGKVLELELDVPLPLIKEALSKLIGEKYKVKIVKIDPIDPEKLKPGSTIEITLKAEPSA [r9_803_TrMRF],4.59 ± 0.2
21,SAGGSVIVKLPNGKILEVSPSELAGYKPGAAVKFPDGTAQVVNPETDEVIDIPIDSPEKIIEAIKKAASAGG [r13_962_TrMRF],0.163 ± 0.24

# Test: folding stability dG unfold from trypsin proteolysis; higher = more stable
# In short: as §1
row,Sequence,folding stability dG unfold [kcal/mol]
1,SAGSSISSISRSPVSTEEDPSTNVRRTTYLEKYPGPPNLLKEVTVTTTFAPDGTPTVTPAVTTLSPALLSAG [r5_48_JUSTAS],-0.817 ± 0.26
2,SAGGSAGGPVSVDPSTGTVTITVPPGTATPVVEAIAAALGLPVETATTPLPDGTTTVTVTIPAASAGGSAGG [r6_419_JUSTAS],0.733 ± 0.1
3,SAGEEVYLITVRIIDPETNEVKEITKLIKNKTEDEILEELRKLLEELGIELPEGAKVEITITKIKPPPESAG [r5_230_TrROS_Hall],3.53 ± 0.52
4,SAGGSAGGSAVRTIFIPGGNIKDIIELIKSDPGQPVQIHAPDGWVIKITGDKDIDIHPFPDSAGGSAGGSAG [r3_269_TrROS],-0.44 ± 0.2
5,SAGGSAGGSAGGMIVTLPKTGEVLLVPEEEIEAFLAALPESFPKEDVEVYEYSPEEEPLSAGGSAGGSAGGS [r10_13_JUSTAS],0.566 ± 0.044
6,SAGGSASPEKVAEELKKKGYKEVKITKDPNTNVTTVTVEDPSGKKYTLTVDPKNPTVVSKKEFSLDSAGGSA [r15_648_JUSTAS],0.926 ± 0.043
7,SAGGSAGGSAMITIKVSPDVPVPSNTPITLPNGKKVKATVTPVPSPEDGTPVLKITLDPNLISAGGSAGGSA [r18_476_JUSTAS],-0.934 ± 0.24
8,SAGGPVVTTTTEYDPSTGKTYTVTTVPGSATQTTTYTLPDGTVLTTTTTVSPTTGGVTSTTPTTTPVPASAG [r5_587_JUSTAS],1.3 ± 0.046
9,SAGGSAGGSAGGSILLITTHPKDAEKAAKEIEKILAELDIPPDAKIEVYVVPKEYLPDESAGGSAGGSAGGS [r4_472_TrMRF],0.323 ± 0.035
10,SAGGSAGGSAGMTVTVPPDLDPESAIAALKAAAPASVKTVTLTIVDGEGPTTTVTVDITGSAGGSAGGSAGG [r17_215_JUSTAS],-0.402 ± 0.18
11,SAGKVKVEKLEDGTVIVEAEIKDPETDEYIKIFDLVTFNPETGYALVPRLVIKGDKPFTFPVLVKLPKSAGG [r19_289_TrMRF],0.0636 ± 0.067
12,SAGGSAGGSGFPVRLKIWDPDETYTYTVPMDPDNVQKFAEELGEKNFNIETEPNGWATITIPKSAGGSAGGS [r12_292_TrROS],0.471 ± 0.08
13,SAGGGFDIITITFGGIPITLTLEGEEEVKKFIEELPKLGIKTEILEKEKKIGPDGKPYVEVKVKAIPSAGGS [r8_336_JUSTAS],0.299 ± 0.13
14,SAGGSAGGSAGMTLEELLRKAKPGQTLTLRVRVVERNEDGSLSEREFTFTFRLELKPEDLSAGGSAGGSAGG [r11_347_TrROS_Hall],2.55 ± 0.077
15,SFSISTETKVVPQDGRLLIEYEFTVPNAPPGDTAALTLSVSHPSGASTSTSQTADPAGTYTAKFVVDIPLTS [r1_161_JUSTAS],0.437 ± 0.061
16,SAGGSAGGSMVKTFPESEPGERVTRELILTPDSIEIVETVVKTDPATGKPVEEVLLRRSTLPLSAGGSAGGS [r12_70_JUSTAS],-0.747 ± 0.4
17,SAGGSMVITITFPDGSTVTIPEEELLELLKKYGIEPDESDKEKVAKEAAKIIGEEKGIPIKEVKINSAGGSA [r2_83_JUSTAS],1.54 ± 0.059
18,SAGGSAGGSASMKVLEFPPDASIEEILEKIEKELGLSKEEIKNIKIEKIDDEEGSYKVIIESAGGSAGGSAG [r3_26_JUSTAS],2.42 ± 0.062
19,SAGGPGMEPIGEIKLDDGVTIEVWRPPNGWYRAKVEFPDNGKQINYPFNPNMSFEQAKDQIKELARKLSAGG [r13_624_TrROS],0.519 ± 0.13
20,DIDIETHPNGTILIKVPRNLLDEIKDILKENGYNVKITGIDPDWGYIRFPLKPVPPPPPKPSPEDAEEQGDS [r1_78_TrROS],1.76 ± 0.082
21,SAGGSAKNEYITVNITIIVYNPEDGKIEKIINLPIKVPKNLTKEQVINLAKKLLEEKGYEIAEIKGSAGGSA [r15_195_TrMRF],2.22 ± 0.12
